Test results reported in paper PMC5336481 (Nature structural & molecular biology, 2017).

How the values were obtained:
[1] = target: full-length C. elegans TRPML1 (CUP-5), WT (C. elegans); assay: cryo-EM structure
[2] = target: the molecule itself; assay: crystal structure
[3] = target: T1, human TRPML1 protein (SDS-PAGE, data not shown) (human), Q9GZU1; assay: reducing SDS-PAGE; conditions: remark: other sources report otherwise
T1 chain: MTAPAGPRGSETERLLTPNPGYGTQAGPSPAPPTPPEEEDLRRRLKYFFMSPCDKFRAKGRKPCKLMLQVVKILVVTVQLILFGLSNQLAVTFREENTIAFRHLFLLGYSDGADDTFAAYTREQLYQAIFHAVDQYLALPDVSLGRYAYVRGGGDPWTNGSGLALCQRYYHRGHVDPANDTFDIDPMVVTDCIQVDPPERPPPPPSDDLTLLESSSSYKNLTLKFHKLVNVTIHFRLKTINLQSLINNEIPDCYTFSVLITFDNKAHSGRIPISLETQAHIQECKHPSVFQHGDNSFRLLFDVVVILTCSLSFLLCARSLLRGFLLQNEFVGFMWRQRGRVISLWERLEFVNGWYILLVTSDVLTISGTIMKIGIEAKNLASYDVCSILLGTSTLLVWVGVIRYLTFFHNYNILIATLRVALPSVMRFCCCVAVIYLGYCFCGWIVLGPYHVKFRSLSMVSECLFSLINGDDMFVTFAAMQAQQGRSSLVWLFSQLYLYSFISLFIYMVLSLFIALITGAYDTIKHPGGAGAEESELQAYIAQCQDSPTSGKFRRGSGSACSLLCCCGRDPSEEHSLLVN

full-length C. elegans TRPML1 (CUP-5), WT (natural protein)
stoichiometry N [1]: 4

B1: human TRPML1 I-II linker (G84-S296) (domain or fragment, UniProt Q9GZU1 84-296, looked up)
chain: GLSNQLAVTFREENTIAFRHLFLLGYSDGADDTFAAYTREQLYQAIFHAVDQYLALPDVSLGRYAYVRGGGDPWTNGSGLALCQRYYHRGHVDPANDTFDIDPMVVTDCIQVDPPERPPPPPSDDLTLLESSSSYKNLTLKFHKLVNVTIHFRLKTINLQSLINNEIPDCYTFSVLITFDNKAHSGRIPISLETQAHIQECKHPSVFQHGDNS
stoichiometry N [2]: 4

B2: human TRPML1 protein (SDS-PAGE, data not shown), Q9GZU1 1-580 (natural protein)
chain: T1 chain
stoichiometry N [3]: 4
